Measurements published in patent publication US7083511B1, “Methods” (The University of Dundee, priority 1998, dated 2006).

Assays:
SGK [1] = test: Activation of GST-SGK in transfected 293 cells (Example 1); assay type: cell-based, human; details: PMA 400 ng/ml 30 min, EGF 100 ng/ml 30 min
SGK3 = target: T1, SGK3 (Homo sapiens, UniProt Q96BR1, S486D); test: Activity of SGK3 toward synthetic peptides related to Crosstide; assay type: biochemical; details: each peptide 30 μM, average of two experiments
T1 construct: SGK3 lacking the N-terminal 52 residues (ΔN-SGK3[53–429]); made in house; host or cells: 293 cells (pEBG-2T-2 vector)
T1 sequence (Q96BR1 120-496 S486D): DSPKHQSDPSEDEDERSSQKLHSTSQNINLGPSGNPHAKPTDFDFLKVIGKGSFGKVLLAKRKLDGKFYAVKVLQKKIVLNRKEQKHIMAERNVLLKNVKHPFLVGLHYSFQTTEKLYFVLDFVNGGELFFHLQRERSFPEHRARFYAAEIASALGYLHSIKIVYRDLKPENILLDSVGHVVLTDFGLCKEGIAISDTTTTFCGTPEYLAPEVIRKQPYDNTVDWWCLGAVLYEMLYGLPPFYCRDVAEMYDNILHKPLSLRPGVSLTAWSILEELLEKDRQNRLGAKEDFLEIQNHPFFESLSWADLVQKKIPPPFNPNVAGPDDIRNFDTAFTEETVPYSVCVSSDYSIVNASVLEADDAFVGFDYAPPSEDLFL

SGK [2] = target: T2, SGK (Homo sapiens, UniProt O00141, S422D); test: Activity of SGK towards synthetic peptides related to Crosstide; assay type: biochemical; details: GST-ΔN-SGK from 293 cells activated by PDK1; each peptide 30 μM
T2 construct: made in house; host or cells: human embryonic kidney 293 cells (pEBG-2T vector)
T2 sequence (O00141 61-431 S422D): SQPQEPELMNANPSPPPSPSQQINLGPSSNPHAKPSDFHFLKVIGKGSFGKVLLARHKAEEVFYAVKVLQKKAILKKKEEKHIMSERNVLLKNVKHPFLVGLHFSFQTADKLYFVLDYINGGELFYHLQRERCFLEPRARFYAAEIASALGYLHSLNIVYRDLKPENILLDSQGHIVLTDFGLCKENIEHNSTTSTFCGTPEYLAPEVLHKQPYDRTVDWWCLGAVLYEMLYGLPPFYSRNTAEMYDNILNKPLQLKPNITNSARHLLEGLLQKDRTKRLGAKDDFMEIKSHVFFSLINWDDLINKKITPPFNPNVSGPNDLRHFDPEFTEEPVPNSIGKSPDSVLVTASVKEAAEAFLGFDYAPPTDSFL
Experimental: Phosphorylation and assay of SGK. Phosphorylation was carried out at 30° C. in 50 μl incubations containing 50 mM Tris/HCl pH 7.5, 0.1 mM EGTA, 0.1% (v/v) 2-mercaptoethanol, 2.5 μM PKI, 1 μM microcystin-LR, 10 mM magnesium chloride and 100 μM ATP. Where indicated lipid vesicles containing phosphatidylcholine (100 μM), phosphatidyl serine (100 μM) and PtdIns(3,4,5)P3 (1 μM) were also included. SGK activity was assayed exactly as described for PKB [6] using the peptide […] (SEQ. ID. NO:30) (“Crosstide”) at 30 μM as substrate. One unit of activity (U) was that amount which catalysed the phosphorylation of […] of Crosstide in one min.

SGK1 = target: T3, SGK1 (Homo sapiens, UniProt O00141, S422D); test: Activity of SGK1 toward synthetic peptides related to Crosstide; assay type: biochemical; details: each peptide 30 μM, average of two experiments
T3 construct: made in house; host or cells: human embryonic kidney 293 cells (pEBG-2T vector)
T3 sequence (O00141 61-431 S422D): T2 sequence (O00141 61-431 S422D)

PKBα = target: T4, PKBα (Homo sapiens, UniProt P31749); test: Activity of PKBα towards synthetic peptides related to Crosstide; assay type: biochemical; details: GST-PKBα from 293 cells activated by PDK1; each peptide 30 μM
T4 construct: pEBG-PKBa expressing full length PKBα; made in house; host or cells: 293 cells (pEBG-PKBα)

SGK2 = target: T5, SGK2 (Homo sapiens, UniProt Q9HBY8, S356D); test: Activity of SGK2 toward synthetic peptides related to Crosstide; assay type: biochemical; details: each peptide 30 μM, average of two experiments
T5 construct: pEBG-SGK2α expressing full length of SGK2α; made in house; host or cells: 293 cells (pEBG-2T-2 vector)
T5 sequence (Q9HBY8 1-367 S356D): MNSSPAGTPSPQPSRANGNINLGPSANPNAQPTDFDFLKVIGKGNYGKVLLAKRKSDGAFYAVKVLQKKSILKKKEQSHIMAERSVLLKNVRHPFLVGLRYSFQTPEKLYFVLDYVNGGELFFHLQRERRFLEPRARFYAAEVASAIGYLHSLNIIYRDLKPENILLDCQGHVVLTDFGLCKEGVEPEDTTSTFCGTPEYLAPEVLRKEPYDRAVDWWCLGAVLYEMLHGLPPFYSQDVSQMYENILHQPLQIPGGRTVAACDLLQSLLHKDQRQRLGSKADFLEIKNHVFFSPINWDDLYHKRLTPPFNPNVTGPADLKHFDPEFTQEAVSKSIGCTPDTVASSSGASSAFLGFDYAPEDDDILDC
Experimental: Each GST-SGK isoform (0.4 μg) was incubated for 20 min at 30° C. with protein phosphatase 2A (PP2A, 30 mU/ml) in a 10 μl incubation containing 20 mM Tris/HCl, pH 7.5, 0.1% (v/v) 2-mercaptoethanol, 0.1 mM EGTA and 1 mg/ml bovine serum albumin. After addition of microcystin-LR to 1 μM to inactivate PP2A, SGK (0.4 μg) was phosphorylated for 30 min at 30° C. in a mixture (20 μl) containing 50 mM Tris/HCl, pH 7.5, 10 mM MgCl2, 0.1% (v/v) 2-mercaptoethanol, 0.1 mM EGTA, GST-PDK1 (0.03–300 ng) diluted in Buffer C and 100 μM unlabelled ATP. […] ID. NO:30) and 4.2 μM of residues 5–24 of the specific protein inhibitor of adenosine 3′5′ cyclic monophosphate-dependent protein kinase. After 10 min at 30° C., the reactions were terminated by spotting aliquots on to P81 phosphocellulose paper, followed by immediate immersion in 75 mM phosphoric acid. The papers were washed, dried and analysed. One unit (U) of SGK was that amount which phosphorylated 1 nmole of Crosstide in one min.

[3] = GST-ΔN-SGK3[S419D] from 293 cells
[4] = GST-ΔN-SGK1[S422D] from 293 cells
[5] = GST-SGK2α[S356D] from 293 cells

T4 sequence (P31749 whole entry, species assumed): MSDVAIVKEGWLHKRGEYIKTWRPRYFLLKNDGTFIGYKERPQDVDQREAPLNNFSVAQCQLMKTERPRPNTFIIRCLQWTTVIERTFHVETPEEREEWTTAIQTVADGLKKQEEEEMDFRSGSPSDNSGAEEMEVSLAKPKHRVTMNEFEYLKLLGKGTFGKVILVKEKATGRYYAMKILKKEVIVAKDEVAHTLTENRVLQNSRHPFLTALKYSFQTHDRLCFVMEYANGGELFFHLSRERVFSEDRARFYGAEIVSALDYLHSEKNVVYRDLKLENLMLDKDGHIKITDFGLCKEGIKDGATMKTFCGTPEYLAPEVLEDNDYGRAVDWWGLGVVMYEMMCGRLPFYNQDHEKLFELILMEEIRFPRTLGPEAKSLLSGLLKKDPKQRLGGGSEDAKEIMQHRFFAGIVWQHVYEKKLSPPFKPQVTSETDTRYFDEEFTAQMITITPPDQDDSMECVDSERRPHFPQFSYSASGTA

Compound | Activation of SGK by the stimulus (in words) (SGK [1]) | SGK3 activity % relative to peptide 1 (Crosstide) (SGK3; [3]) [%] | SGK activity relative to peptide 1 (Crosstide) (SGK [2]) [%] | SGK1 activity % relative to peptide 1 (Crosstide) (SGK1; [4]) [%] | PKBα activity relative to peptide 1 (Crosstide) (PKBα) [%] | SGK2 activity % relative to peptide 1 (Crosstide) (SGK2; [5]) [%] | SGK3 activity % relative to peptide 1 (Crosstide) (SGK3; […]) [%] | SGK1 activity % relative to peptide 1 (Crosstide) (SGK1; […]) [%] | SGK2 activity % relative to peptide 1 (Crosstide) (SGK2; […]) [%]
CCCCCCCCCCCCCC(=O)O[C@@H]1[C@@H](C)[C@@]2(O)[C@@H](C=C(CO)C[C@]3(O)C(=O)C(C)=C[C@@H]23)[C@@H]2C(C)(C)[C@]12OC(C)=O [Phorbol myristate acetate, reference compound] | did not induce any activation |  |  |  |  |  |  |  | 
EGF: activator of the classical MAP kinase cascade in 293 cells | did not induce any activation |  |  |  |  |  |  |  | 
GRPRTSSFAEG [Peptide 1, ID; NO: 30, reference compound] |  | 100 | 100 | 100 | 100 | 100 |  |  | 
KPRTSSF [Peptide 8, ID; NO: 37] |  | <1 | 2 | <1 | 6 | <1 |  |  | 
PRTSSF [Peptide 4, ID; NO: 33] |  | <1 | <1 | <1 | <1 | <1 |  |  | 
RPKTSSF [Peptide 9, ID; NO: 38] |  | 48 | 49 | 11 | 26 | 8 |  |  | 
RPRAATF [Peptide 7] |  |  | 73 |  | 55 |  | 56 | 44 | 61
RPRTSAF [Peptide 3, ID; NO: 32] |  | <1 | <1 | <1 | <1 | <1 |  |  | 
RPRTSS [Peptide 5, ID; NO: 31] |  | 18 | 10 | 5.1 | <1 | 8 |  |  | 
RPRTSSA [Peptide 13, ID; NO: 42] |  | 123 | 107 | 49 | 26 | 82 |  |  | 
RPRTSSE [Peptide 15, ID; NO: 44] |  | 67 | 84 | 28 | 21 | 34 |  |  | 
RPRTSSF [Peptide 2, ID; NO: 39] |  | 137 | 154 | 135 | 160 | 182 |  |  | 
RPRTSSK [Peptide 14, ID; NO: 43] |  | 200 | 146 | 84 | 48 | 128 |  |  | 
RPRTSSL [Peptide 11, ID; NO: 40] |  | 113 | 135 | 108 | 69 | 185 |  |  | 
RPRTSSV [Peptide 12, ID; NO: 41] |  | 139 | 131 | 90 | 67 | 124 |  |  | 
RPRTSTF [Peptide 6, ID; NO: 35] |  | 156 | 156 | 129 | 208 | 192 |  |  | 
